Results from patent US20200317776A1 (published 2020).
Residue numbers refer to the chain shown, from its start.

T1: human TREM2 Fc fusion (entire TREM2 ECD; only one Fc arm fused to TREM2) (human, UniProt Q9NZC2 19-174)
T1 construct: also called huTREM2-Fc; recombinant hTREM2
T1 sequence: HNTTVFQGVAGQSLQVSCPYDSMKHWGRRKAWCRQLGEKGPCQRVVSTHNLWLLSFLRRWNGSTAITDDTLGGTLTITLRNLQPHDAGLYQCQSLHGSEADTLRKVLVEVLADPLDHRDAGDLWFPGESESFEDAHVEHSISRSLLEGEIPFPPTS

T2: cynomolgus monkey TREM2 Fc fusion (entire TREM2 ECD; only one Fc arm fused to TREM2) (cynomolgus monkey, UniProt Q9NZC2 19-174 (human entry))
T2 construct: also called cyno TREM2-Fc
T2 chain: T1 sequence with A10E, W60R, L89F, F125V

T3: human TREM2 expressed on cells (human, UniProt Q9NZC2 19-230)
T3 construct: BW5147.G.1.4 cells stably expressing human TREM2 together with Dap12, or endogenous TREM2 of primary human myeloid cells; also called huT2 BW; hTREM2 expressing cell line
T3 sequence: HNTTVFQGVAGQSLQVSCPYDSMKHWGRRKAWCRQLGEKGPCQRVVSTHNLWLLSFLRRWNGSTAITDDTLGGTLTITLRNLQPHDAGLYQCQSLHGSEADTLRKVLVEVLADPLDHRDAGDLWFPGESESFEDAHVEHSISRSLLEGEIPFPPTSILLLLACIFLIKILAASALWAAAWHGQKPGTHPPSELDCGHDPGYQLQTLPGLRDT

B1: AL2p-42 (antibody, V domains shown)
VH: QVQLVQSGAEVKKPGSSVKVSCKASGYAFSSHWMNWVRQAPGQGLEWMGRIYPGEGDTNYAQKFRGRVTITADESTSTAYMELSSLRSEDTAVYYCARLLRNQPGASYAMDYWGQGTLVTVSS
VL: GVVMTQTPLSLSVTPGQPASISCRTSRSLVHSNRYTYLHWYLQKPGQSPQLLIYKVSNRRSGVPDRFSGSGSGTDFTLKISRVEAEDVGVYYCSQSTRVPYTFGQGTKLEIK
notes: Fab and IgG formats under one id
B2: AL2p-49 (antibody, V domains shown)
VH: B1 VH with Q1E, H32D, Q62R, R65H, Q103K, A106E
VL: B1 VL with G1D, R27Q, R34Q, R60V
notes: as for B1
B3: AL2p-50 (antibody, V domains shown)
VH: B1 VH with R65H, A106E
VL: B1 VL with G1D, R27Q, R34A, R60V
notes: as for B1
B4: AL2p-56 (antibody, V domains shown)
VH: B1 VH with Q1E, R65H, Q103K, A106E
VL: B1 VL with G1D, R27Q, R34A, R60V
notes: same VH/VL entries as AL2p-55; Fab and IgG formats under one id
B5: AL2p-48 (antibody, V domains shown)
VH: B1 VH with H32D, Q62R, R65H, Q103K, A106E
VL: B1 VL with G1D, R27Q, R34Q, R60V
notes: as for B1
B6: AL2p-57 (antibody, V domains shown)
VH: B1 VH with Q1E, R65H, Q103K, A106E
VL: B1 VL with G1D, R27Q, R34Q, R60V
notes: as for B1
B7: AL2p-45 (antibody, V domains shown)
VH: B1 VH with H32D, Q62R, R65Q, Q103K, A106E
VL: B1 VL with G1D, R27Q, R34A, R60V
notes: as for B1
B8: AL2p-51 (antibody, V domains shown)
VH: B1 VH with R65H, A106E
VL: B1 VL with G1D, R27Q, R34Q, R60V
notes: as for B1
B9: AL2p-44 (antibody, IgG1, V domains shown)
VH: B1 VH with E55G, Q62R
VL: B1 VL
notes: as for B1
B10: AL2p-52 (antibody, V domains shown)
VH: B1 VH with Q1E, R65H, A106E
VL: B1 VL with G1D, R27Q, R34A, R60V
notes: as for B1
B11: AL2p-55 (antibody, V domains shown)
VH: B1 VH with Q1E, R65H, Q103K, A106E
VL: B1 VL with G1D, R27Q, R34A, R60V
notes: same VH/VL entries as AL2p-56; Fab and IgG formats under one id
B12: AL2p-46 (antibody, V domains shown)
VH: B1 VH with H32D, Q62R, R65Q, Q103K, A106E
VL: B1 VL with G1D, R27Q, R34Q, R60V
notes: as for B1
B13: AL2p-53 (antibody, V domains shown)
VH: B1 VH with Q1E, R65H, A106E
VL: B1 VL with G1D, R27Q, R34Q, R60V
notes: as for B1
B14: AL2p-54 (antibody, V domains shown)
VH: B1 VH with R65H, Q103K, A106E
VL: B1 VL with G1D, R27Q, R34Q, R60V
notes: as for B1

biological target: T1, human TREM2 Fc fusion (entire TREM2 …); assay: BLI, Fab, monovalent

Row | Binder | Kd
1 | B1 | 0.829 nM
2 | B2 | 11.6 nM
3 | B3 | 23.9 nM
4 | B4 | 18.7 nM
5 | B5 | 11.2 nM
6 | B6 | 17.8 nM
7 | B7 | 17.8 nM
8 | B8 | 21.2 nM
9 | B9 | 0.41 nM
10 | B10 | 27 nM
11 | B11 | 18.5 nM
12 | B12 | 13 nM
13 | B13 | 21.1 nM
14 | B14 | 13.9 nM

Biological target: T2, cynomolgus monkey TREM2 Fc fusion …
Assay: BLI, Fab, monovalent

Row | Binder | Kd
15 | B1 | 0.312 nM
16 | B2 | 14.1 nM
17 | B3 | 36.1 nM
18 | B4 | 18.8 nM
19 | B5 | 14.9 nM
20 | B6 | 17.6 nM
21 | B7 | 20.9 nM
22 | B8 | 27.2 nM
23 | B9 | 0.271 nM
24 | B10 | 28 nM
25 | B11 | 22.6 nM
26 | B12 | 16.1 nM
27 | B13 | 31.3 nM
28 | B14 | 16.8 nM

biological target: T3, human TREM2 expressed on cells; assay: FACS, hTREM2 BW cells
Excerpt: (§1) To examine cell binding of affinity matured anti-TREM2 antibodies, both primary human monocyte derived dendritic cells and recombinant, human TREM2 expressing cells were utilized. For the latter, BW5147.G.1.4 (ATCC® TIB48™) and HEK293T cells stably expressing human TREM2 together with Dap12 using viral infection were established. For primary human monocyte derived dendritic cells, human monocytes were isolated from whole blood using RosetteSep Human monocyte enrichment cocktail (Stemcell technologies) and Ficoll centrifugation per manufacturer protocols. After lysing red blood cells with ACK lysing buffer, monocytes were resuspended in complete media (RPMI, 10% FBS, Pen/Strep, L-glutamine, HEPES, non-essential amino acid, Sodium pyruvate) with 100 ng/ml human GM-CSF (hu-GMCSF) and, human IL-4 (hu-IL-4) to differentiate dendritic cells for 6 days.
(§2) Cells were harvested by trypsinization (Hek293T) or scraping (BW and dendritic cells), washed in PBS, counted and plated on 96-well U bottom plates at […] cells/well. The plates were spun at 1,400 rpm for 3 minutes and primary TREM2 or control antibodies were added in FACS buffer (PBS+2% FBS) and incubated on ice for one hour. Cells were subsequently centrifuged as before and washed thrice with FACS buffer. Cells were then incubated with anti-human PE conjugated secondary antibody (BD Biosciences) in FACS buffer for 30 minutes on ice. Cells were again washed thrice with FACS buffer and analyzed on a BD FACS Canto or an Intellicyt Flow Cytometer. Binding was measured as mean fluorescence intensity in the APC channel.

Row | Binder | Kd
29 | B1 | 1.91 nM
30 | B2 | 1.15 nM
31 | B3 | 1.8 nM
32 | B4 | 2.01 nM
33 | B5 | 1.4 nM
34 | B6 | 1.83 nM
35 | B7 | 1.54 nM
36 | B8 | 1.92 nM
37 | B9 | 4.18 nM
38 | B10 | 2.42 nM
39 | B11 | 2.05 nM
40 | B12 | 1.33 nM
41 | B13 | 1.72 nM
42 | B14 | 2.3 nM

biological target: T3, human TREM2 expressed on cells; assay: FACS, human DCs
Excerpt: as §1, §2

Row | Binder | MFI
43 | B1 | 662 MFI
44 | B2 | 413 MFI
45 | B3 | 235 MFI
46 | B4 | 155 MFI
47 | B5 | 408 MFI
48 | B6 | 152 MFI
49 | B7 | 318 MFI
50 | B8 | 195 MFI
51 | B9 | 1470 MFI
52 | B10 | 224 MFI
53 | B11 | 141 MFI
54 | B12 | 187 MFI
55 | B13 | 159 MFI
56 | B14 | 235 MFI

biological target: T3, human TREM2 expressed on cells; assay: cell-based or functional assay

Row | Binder | DC viability (AUC) | Mac viability (AUC)
57 | B1 | 781000 AUC | 57900 AUC
58 | B2 | 754000 AUC | 15100 AUC
59 | B3 | 286000 AUC | -10400 AUC
60 | B4 | 643000 AUC | -7620 AUC
61 | B5 | 770000 AUC | 23600 AUC
62 | B6 | 506000 AUC | -3560 AUC
63 | B7 | 543000 AUC | 3680 AUC
64 | B8 | 259000 AUC | -11200 AUC
65 | B9 | 750000 AUC | 74700 AUC
66 | B10 | 283000 AUC | -13500 AUC
67 | B11 | 631000 AUC | -5280 AUC
68 | B12 | 597000 AUC | 6040 AUC
69 | B13 | 234000 AUC | -10200 AUC
70 | B14 | 570000 AUC | -7640 AUC

biological target: human TREM2/DAP12 fusion protein (human, UniProt O43914 41-113, limits assumed); assay: cell-based or functional assay
Sequence (O43914 other isoform, or with tags, fused parts or gaps limits assumed): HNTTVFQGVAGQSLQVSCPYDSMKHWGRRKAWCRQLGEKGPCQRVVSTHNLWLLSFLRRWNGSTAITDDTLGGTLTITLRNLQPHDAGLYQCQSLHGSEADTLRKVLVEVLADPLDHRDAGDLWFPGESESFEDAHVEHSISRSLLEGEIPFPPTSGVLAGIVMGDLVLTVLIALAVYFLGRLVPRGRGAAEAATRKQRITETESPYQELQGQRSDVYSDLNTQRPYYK

Row | Binder | BW Luc assay plate bound 7.3 nM IgG, FOC | BW Luc assay soluble 7.3 nM IgG, FOC
71 | B1 | 6.52 FOC | 5.95 FOC
72 | B2 | 3.12 FOC | 3.28 FOC
73 | B3 | 1.19 FOC | 2.07 FOC
74 | B4 | 1.51 FOC | 2.02 FOC
75 | B5 | 3.25 FOC | 3.65 FOC
76 | B6 | 1.41 FOC | 2.03 FOC
77 | B7 | 2.29 FOC | 2.38 FOC
78 | B8 | 1.22 FOC | 2.3 FOC
79 | B9 | 7.17 FOC | 11.5 FOC
80 | B10 | 1.3 FOC | 1.75 FOC
81 | B11 | 1.49 FOC | 2.08 FOC
82 | B12 | 1.64 FOC | 2.98 FOC
83 | B13 | 1.45 FOC | 2.32 FOC
84 | B14 | 1.53 FOC | 2.17 FOC
